Results published in paper PMC9975939.

Biological target: T1, untagged NDP52 wild type (human), Q13137
T1 chain: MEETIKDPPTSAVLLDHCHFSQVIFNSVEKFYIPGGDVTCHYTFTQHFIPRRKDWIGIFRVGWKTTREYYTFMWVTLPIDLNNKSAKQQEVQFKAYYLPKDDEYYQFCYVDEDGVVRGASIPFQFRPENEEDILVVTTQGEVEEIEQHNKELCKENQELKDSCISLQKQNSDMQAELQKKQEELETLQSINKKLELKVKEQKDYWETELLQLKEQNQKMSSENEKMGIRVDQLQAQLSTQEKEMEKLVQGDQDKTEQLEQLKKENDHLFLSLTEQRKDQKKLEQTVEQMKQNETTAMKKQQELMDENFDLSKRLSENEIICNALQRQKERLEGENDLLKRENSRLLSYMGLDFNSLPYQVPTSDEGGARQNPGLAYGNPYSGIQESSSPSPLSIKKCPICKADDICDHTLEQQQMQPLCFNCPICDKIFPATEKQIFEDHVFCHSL
Test: native gel or EMSA; blue native PAGE (4–16% NativePAGE gel, Coomassie G-250) of recombinant NDP52 WT and Mut, immunoblot
Settings: remark: other sources report otherwise

- stoichiometry N: 2
B1: untagged NDP52 wild type, Q13137 1-446 (natural protein)
chain: T1 chain
